The series addresses Bh-RNase HC (RNase H1 catalytic domain) (Bacillus halodurans, UniProt Q9KEI9 59-196). Nature of the series: X-ray crystallography.

These results are taken from PMC6097844.

Chain of Bh-RNase HC (RNase H1 catalytic domain) (Q9KEI9 59-196): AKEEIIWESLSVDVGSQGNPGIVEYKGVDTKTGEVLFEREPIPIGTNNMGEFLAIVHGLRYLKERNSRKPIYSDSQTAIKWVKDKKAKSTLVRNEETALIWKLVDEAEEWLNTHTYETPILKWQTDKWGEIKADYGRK

B1: RNA/DNA hybrid 6-mer (DNA:RNA)
RNA: ACAUCG
DNA: CGATGT
modifications: strand 1 printed ArCrArUrCG: ribonucleotides at 2-5, deoxy A1 and G6; strand 2 all DNA
As to B1, the binding result was “binds”.
